Results on two substances are retold here after patent publication US12427210B2, “Compounds comprising a fibroblast activation protein ligand and use thereof” (priority 2019, dated 2025).

Targets include PDE4D2 (h) (human) (UniProt Q08499); COX1(h) (human) (UniProt P23219); PDE3A (h) (human) (UniProt Q14432); Lck kinase (h) (human) (UniProt P06239).
In assay [1] the target is Acetylcholinesterase (h) (human) (UniProt P22303).
A further assay concerns the target T1, COX2(h) (human) (UniProt P35354).
T1 sequence: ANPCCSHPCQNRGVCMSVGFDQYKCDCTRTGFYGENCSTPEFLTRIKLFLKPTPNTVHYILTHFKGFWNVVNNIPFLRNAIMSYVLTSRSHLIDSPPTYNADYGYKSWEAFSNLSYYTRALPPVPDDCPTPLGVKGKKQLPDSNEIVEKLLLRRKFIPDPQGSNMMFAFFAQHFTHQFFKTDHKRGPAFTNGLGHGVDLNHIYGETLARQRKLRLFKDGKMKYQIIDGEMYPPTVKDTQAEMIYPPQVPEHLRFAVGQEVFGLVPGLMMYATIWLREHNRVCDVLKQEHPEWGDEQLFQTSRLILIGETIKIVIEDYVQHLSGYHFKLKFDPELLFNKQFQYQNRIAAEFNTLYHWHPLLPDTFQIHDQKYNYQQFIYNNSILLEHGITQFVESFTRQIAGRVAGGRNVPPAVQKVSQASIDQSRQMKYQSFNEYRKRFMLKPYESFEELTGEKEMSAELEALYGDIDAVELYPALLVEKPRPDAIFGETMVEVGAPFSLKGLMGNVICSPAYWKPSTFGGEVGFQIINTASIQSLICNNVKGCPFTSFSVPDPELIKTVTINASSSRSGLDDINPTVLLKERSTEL

Assay [2] concerns the target Ubiquitin carboxyl-terminal hydrolase 5 (Homo sapiens (Human)) (UniProt P45974).
Assay [3] addresses Caspase-9 (Homo sapiens (Human)) (UniProt P55211).
The target of assay [4] is T2, Caspase-3 (Homo sapiens (Human)) (UniProt P42574).
T2 sequence: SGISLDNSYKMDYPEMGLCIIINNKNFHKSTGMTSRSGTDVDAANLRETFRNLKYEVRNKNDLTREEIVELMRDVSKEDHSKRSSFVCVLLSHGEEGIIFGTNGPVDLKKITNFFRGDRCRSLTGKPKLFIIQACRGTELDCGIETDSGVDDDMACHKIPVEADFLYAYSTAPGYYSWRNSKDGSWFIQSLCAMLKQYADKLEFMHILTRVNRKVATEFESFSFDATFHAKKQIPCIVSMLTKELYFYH

In assay [5] the target is DPP9 (Homo sapiens (Human)) (UniProt Q86TI2).
Assay [6] concerns the target serine protease NS3 (a.a. 3-181) from Hepatitis C virus genotype 1b (mutant R155K) (Hepatitis C virus genotype 1b).
In assay [7] the target is serine protease NS3 (a.a. 3-181) from Hepatitis C virus genotype 1b (mutant D168V) (Hepatitis C virus genotype 1b).
Assay [8] has as its target DPP8 (Homo sapiens (Human)) (UniProt Q6V1X1).
Assay [9] addresses Ataxin3 (Homo sapiens (Human)) (UniProt P54252).
For assay [10], the target named is serine protease NS3 (a.a. 3-181) from Hepatitis C virus genotype 1b (Hepatitis C virus genotype 1b).
In assay [11] the target is T3, Ubiquitin carboxyl-terminal hydrolase 2 (Homo sapiens (Human)) (UniProt O75604).
T3 sequence: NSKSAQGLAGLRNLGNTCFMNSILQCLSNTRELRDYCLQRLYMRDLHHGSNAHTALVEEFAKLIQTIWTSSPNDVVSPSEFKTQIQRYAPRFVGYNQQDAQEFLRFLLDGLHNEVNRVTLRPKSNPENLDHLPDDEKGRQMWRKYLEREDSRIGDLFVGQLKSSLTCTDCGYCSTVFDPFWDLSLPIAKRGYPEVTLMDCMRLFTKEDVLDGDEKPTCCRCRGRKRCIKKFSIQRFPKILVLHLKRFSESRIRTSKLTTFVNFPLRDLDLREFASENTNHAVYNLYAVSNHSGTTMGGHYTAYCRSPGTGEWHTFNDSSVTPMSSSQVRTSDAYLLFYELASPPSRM

Assay [12] addresses T4, Renin (Homo sapiens (Human)) (UniProt P00797).
T4 sequence: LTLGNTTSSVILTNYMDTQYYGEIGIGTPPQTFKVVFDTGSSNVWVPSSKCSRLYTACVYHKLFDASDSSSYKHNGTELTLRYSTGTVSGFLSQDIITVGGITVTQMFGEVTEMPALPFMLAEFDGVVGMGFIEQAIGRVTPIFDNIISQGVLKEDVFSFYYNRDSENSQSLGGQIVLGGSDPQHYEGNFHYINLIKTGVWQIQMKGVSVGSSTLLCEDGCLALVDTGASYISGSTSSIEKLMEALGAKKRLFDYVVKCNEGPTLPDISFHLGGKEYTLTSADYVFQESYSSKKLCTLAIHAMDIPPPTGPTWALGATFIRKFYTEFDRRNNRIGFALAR

In assay [13] the target is FAP (enzyme of the specificity protease screening) (Homo sapiens (Human)) (UniProt Q12884).
Chain of FAP (enzyme of the specificity protease screening) (Homo sapiens (Human)) (Q12884 26-760 limits assumed): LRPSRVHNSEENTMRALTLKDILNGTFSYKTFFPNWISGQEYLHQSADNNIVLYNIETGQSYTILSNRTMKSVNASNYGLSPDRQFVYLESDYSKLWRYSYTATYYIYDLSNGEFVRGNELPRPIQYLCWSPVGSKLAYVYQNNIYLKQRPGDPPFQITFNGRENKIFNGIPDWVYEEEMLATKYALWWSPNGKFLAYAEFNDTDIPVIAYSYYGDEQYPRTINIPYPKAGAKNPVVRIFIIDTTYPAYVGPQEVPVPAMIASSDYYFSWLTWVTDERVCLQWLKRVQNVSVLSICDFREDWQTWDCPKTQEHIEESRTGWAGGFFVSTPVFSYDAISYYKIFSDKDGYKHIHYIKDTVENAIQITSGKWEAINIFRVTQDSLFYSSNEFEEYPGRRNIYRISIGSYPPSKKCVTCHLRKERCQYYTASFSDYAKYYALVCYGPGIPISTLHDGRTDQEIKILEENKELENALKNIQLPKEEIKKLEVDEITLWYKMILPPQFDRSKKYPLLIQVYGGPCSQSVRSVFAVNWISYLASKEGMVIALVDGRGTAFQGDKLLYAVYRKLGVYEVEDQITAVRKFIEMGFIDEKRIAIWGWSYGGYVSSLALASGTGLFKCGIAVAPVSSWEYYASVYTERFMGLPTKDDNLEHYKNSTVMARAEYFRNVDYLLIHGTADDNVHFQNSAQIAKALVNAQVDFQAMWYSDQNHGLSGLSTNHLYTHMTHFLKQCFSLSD
In assay [14] the target is Ubiquitin carboxyl-terminal hydrolase 10 (Homo sapiens (Human)) (UniProt Q14694).
Chain of Ubiquitin carboxyl-terminal hydrolase 10 (Homo sapiens (Human)) (Q14694 whole entry): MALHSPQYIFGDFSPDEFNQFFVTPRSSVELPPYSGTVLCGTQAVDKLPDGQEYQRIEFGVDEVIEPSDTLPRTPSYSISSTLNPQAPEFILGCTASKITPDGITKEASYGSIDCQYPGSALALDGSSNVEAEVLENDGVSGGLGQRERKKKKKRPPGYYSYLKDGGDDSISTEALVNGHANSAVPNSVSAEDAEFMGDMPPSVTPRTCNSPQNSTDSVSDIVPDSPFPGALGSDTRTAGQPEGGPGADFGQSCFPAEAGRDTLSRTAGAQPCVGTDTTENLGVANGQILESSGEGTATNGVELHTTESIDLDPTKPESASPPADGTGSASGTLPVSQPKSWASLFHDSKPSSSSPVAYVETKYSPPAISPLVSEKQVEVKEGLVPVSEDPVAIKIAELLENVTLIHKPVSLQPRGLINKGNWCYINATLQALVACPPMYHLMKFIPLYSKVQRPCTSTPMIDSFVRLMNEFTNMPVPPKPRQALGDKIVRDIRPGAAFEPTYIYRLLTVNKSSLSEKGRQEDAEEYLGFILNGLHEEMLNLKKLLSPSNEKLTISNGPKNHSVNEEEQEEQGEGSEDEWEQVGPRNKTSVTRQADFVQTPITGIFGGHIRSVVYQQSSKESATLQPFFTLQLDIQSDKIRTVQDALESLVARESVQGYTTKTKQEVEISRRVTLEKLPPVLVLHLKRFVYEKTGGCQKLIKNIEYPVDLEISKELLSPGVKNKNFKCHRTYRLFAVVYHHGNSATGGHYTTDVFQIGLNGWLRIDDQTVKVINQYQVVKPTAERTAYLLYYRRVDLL
The target in assay [15] is Ubiquitin carboxyl-terminal hydrolase 8 (Homo sapiens (Human)) (UniProt P40818).
The target in assay [16] is T5, Cathepsin F (Homo sapiens (Human)) (UniProt Q9UBX1).
T5 sequence: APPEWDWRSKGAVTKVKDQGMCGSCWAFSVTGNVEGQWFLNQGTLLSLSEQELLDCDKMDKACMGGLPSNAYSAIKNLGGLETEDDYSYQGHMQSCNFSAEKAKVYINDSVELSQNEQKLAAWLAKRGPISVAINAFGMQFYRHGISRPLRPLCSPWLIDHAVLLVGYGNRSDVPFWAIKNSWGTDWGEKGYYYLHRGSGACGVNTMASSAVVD

In assay [17] the target is Ubiquitin carboxy-terminal hydrolase L1 (Homo sapiens (Human)) (UniProt P09936).
Assay [18] has as its target Cathepsin B (Homo sapiens (Human)) (UniProt P07858).
For assay [19], the target named is recombinant human PREP (R&D systems, #4308-SE) (human) (UniProt P48147).
For assay [20], the target named is Recombinant human DPP4 (R&D systems #9168-SE) (human) (UniProt P27487).

Chain of Ataxin3 (Homo sapiens (Human)) (P54252 whole entry): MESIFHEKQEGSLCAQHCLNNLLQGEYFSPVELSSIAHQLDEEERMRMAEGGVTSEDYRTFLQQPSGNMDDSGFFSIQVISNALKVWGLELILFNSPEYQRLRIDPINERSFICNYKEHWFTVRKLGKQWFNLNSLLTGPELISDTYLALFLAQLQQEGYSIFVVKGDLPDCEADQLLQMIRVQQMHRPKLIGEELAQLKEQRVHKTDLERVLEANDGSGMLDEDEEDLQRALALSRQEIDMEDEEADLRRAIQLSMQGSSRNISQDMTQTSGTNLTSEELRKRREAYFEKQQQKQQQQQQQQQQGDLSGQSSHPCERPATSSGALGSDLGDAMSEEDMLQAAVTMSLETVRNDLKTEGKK
Chain of Caspase-9 (Homo sapiens (Human)) (P55211 whole entry): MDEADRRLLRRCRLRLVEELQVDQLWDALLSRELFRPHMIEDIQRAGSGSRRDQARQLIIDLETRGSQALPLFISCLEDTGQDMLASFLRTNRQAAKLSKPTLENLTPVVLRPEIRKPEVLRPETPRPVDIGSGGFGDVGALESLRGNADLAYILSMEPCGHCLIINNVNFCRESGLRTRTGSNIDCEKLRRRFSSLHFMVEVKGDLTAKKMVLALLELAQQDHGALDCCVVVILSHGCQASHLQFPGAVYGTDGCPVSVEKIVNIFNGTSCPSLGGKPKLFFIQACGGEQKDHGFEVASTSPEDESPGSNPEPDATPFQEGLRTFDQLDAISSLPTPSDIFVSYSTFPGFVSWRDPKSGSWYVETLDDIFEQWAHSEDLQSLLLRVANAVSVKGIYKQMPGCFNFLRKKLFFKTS
Chain of Acetylcholinesterase (h) (human) (P22303 32-614 limits assumed): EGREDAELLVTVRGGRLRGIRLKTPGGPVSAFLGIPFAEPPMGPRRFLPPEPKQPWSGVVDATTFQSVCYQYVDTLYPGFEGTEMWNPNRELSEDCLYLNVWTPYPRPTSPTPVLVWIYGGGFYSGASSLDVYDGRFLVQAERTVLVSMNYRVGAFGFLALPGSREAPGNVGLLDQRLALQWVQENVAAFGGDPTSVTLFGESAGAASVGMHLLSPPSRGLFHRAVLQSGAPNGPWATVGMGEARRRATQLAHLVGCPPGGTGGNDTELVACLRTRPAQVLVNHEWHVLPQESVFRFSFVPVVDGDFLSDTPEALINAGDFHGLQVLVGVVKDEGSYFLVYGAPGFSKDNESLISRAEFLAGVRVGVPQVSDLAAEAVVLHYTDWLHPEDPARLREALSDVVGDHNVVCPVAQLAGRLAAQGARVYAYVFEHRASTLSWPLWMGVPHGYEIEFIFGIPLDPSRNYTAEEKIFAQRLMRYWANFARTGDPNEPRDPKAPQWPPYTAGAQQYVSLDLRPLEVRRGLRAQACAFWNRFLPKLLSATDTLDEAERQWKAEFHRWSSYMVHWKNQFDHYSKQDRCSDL
Chain of PDE4D2 (h) (human) (Q08499 303-809): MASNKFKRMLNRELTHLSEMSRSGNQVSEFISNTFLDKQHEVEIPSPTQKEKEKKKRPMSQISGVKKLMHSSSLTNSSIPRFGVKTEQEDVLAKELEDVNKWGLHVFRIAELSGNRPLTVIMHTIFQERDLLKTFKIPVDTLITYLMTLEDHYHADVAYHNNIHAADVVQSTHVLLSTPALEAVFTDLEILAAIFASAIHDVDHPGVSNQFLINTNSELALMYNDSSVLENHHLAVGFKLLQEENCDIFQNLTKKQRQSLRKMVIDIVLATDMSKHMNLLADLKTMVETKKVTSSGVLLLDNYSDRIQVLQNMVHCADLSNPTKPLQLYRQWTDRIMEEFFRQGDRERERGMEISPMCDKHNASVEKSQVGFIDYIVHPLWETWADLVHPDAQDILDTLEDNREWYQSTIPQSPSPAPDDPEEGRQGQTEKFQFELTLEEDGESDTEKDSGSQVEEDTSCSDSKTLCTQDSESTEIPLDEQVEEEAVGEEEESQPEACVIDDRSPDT
Chain of COX1(h) (human) (P23219 24-599 limits assumed): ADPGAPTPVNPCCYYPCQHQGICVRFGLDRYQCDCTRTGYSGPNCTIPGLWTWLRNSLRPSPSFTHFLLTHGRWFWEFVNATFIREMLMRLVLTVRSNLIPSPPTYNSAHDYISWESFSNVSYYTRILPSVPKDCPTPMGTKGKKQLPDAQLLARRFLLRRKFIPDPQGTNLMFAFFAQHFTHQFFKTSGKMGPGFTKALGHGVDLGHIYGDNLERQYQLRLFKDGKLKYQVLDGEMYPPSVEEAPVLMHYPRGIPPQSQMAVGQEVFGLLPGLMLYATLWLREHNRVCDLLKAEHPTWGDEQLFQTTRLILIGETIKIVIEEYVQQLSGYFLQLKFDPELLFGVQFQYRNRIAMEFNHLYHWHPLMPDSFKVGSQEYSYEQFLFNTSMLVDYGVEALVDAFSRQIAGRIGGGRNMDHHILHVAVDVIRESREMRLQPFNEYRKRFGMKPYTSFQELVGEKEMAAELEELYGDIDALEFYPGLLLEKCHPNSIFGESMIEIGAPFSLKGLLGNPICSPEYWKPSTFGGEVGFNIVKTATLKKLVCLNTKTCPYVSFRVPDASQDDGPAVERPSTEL
Chain of Ubiquitin carboxyl-terminal hydrolase 5 (Homo sapiens (Human)) (P45974 whole entry): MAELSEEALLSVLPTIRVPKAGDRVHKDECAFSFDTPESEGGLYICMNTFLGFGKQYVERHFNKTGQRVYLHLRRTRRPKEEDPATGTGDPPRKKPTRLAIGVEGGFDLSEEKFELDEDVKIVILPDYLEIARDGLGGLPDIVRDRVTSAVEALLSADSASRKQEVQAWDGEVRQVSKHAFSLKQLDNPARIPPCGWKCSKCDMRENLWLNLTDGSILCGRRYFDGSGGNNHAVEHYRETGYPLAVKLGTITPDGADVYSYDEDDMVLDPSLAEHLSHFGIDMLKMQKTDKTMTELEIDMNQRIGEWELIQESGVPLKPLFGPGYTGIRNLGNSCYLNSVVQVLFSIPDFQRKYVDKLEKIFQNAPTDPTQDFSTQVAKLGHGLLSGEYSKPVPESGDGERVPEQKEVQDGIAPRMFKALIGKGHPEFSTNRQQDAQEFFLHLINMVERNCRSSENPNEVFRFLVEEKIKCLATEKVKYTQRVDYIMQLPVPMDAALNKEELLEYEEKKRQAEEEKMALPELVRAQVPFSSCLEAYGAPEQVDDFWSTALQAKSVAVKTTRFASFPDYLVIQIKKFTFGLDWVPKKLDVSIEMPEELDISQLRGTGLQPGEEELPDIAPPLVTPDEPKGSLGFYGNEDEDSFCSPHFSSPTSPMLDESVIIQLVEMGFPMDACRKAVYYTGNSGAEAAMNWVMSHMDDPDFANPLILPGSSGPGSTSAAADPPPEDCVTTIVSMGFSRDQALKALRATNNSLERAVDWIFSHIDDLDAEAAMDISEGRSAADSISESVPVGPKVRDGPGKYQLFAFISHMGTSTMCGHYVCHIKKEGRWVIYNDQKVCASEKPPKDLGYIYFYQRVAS

As to “Hex-[Cys(tMeBn(DOTA-AET))-Pro-Pro-Thr-Gln-Phe-Cys]-OH (3BP-3554) (peptide)”, the % inhibition of control enzyme activity with PDE4D2 (h) (human) is -4 % at 10 µM; with COX1(h) (human) it was 8 % at 10 µM; in the assay with PDE3A (h) (human), -37 % at 10 µM; with Lck kinase (h) (human), -4 % at 10 µM; in assay [1], 1 % at 10 µM; in the assay with COX2(h) (human) it was -22 % at 10 µM. The Percentage inhibition (%) (% inhibition at 10 µM) in [2] was -2; in assay [3] it was -2; in assay [4], -1; in assay [5] it was -5; in [6], 0; in assay [7] it was -17. The Percentage inhibition (%) (% inhibition at 10 µM) is 11 in assay [8]; -1 in assay [9]; -9 in assay [10]; -1 in [11]; -1 in assay [12]; -1 in assay [14]. Further, the Percentage inhibition (%) (% inhibition at 10 µM) was 1 in [15], -25 in assay [16], 4 in assay [17] and 2 in [18]. Moreover, the Percentage inhibition (%) (% inhibition at 1 µM) in assay [13] is 97.
“Hex-[Cys(tMeBn(DOTA-PP))-Pro-Pro-Thr-Gln-Phe-Cys]-Asp-NH2 (3BP-3407) (peptide)”: the % inhibition of control enzyme activity in the assay with PDE4D2 (h) (human) was -5 % at 10 µM; in the assay with COX1(h) (human), 10 % at 10 µM; with PDE3A (h) (human) it was -3 % at 10 µM; in the assay with Lck kinase (h) (human), 10 % at 10 µM; in [1], -6 % at 10 µM; in the assay with COX2(h) (human), -14 % at 10 µM. The pIC50 (PREP) in assay [19] was less than 6 pIC50. The pIC50 (DPP4) in [20] was less than 6 pIC50. Further, the Percentage inhibition (%) (% inhibition at 10 µM) in assay [2] is 46; in assay [3], 8; in assay [4] it was -2; in assay [5], 0; in assay [6] it was 5; in [7], -6. The Percentage inhibition (%) (% inhibition at 10 µM) was found to be 5 in assay [8]; 10 in [9]; 5 in [10]; 7 in assay [11]; 3 in [12]; 5 in [14]. The Percentage inhibition (%) (% inhibition at 10 µM) was 6 in assay [15], -24 in assay [16], 4 in assay [17] and 36 in [18]. Moreover, the Percentage inhibition (%) (% inhibition at 1 µM) in assay [13] turned out to be 98.
